For orientation: EC50 means the concentration needed to bring the measured effect to its halfway point.

Results on 2 molecules are retold here after patent publication US9809653B2, “Anti-LAMP1 antibodies and antibody drug conjugates, and uses thereof” (SANOFI, priority 2012, dated 2017).

“Also recorded” adds a separate entry of the source.

The target of one experiment is T1, Mouse LAMP1 (Mus musculus, UniProt P11438).
T1 construct: made in house; host or cells: HEK293 (293-F), transient expression, IMAC-purified
T1 sequence (P11438 with tags, fused parts or gaps): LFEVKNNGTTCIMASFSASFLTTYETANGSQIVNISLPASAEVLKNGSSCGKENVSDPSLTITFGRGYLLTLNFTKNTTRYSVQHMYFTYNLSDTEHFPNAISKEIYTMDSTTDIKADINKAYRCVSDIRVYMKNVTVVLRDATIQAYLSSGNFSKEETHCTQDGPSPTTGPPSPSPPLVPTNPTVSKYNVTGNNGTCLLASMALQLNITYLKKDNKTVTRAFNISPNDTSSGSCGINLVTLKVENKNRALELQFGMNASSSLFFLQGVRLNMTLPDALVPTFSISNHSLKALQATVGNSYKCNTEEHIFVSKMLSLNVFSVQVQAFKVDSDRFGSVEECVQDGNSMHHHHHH
As to the kind of experiment: ELISA on mouse LAMP1 extracellular domain. Type of experiment: binding. An excerpt: The high level of glycosylation of the antigen required a specific approach to determine the binding site of the anti-LAMP1 mAbs on LAMP1. […] This absence of binding was used to design several chimeric LAMP1 proteins in which one or several of the LAMP1 domains (Loop1-Loop4) in the human construct were replaced by the murine counterpart. The absence of binding once the binding site of the antibody was replaced by the murine counterpart allowed for identification of the antibody binding side.
Secreted LAMP1 proteins described in example 6.2 were used to identify the binding domain to anti-LAMP1 mAbs by ELISA.
In general terms: ELISA stands for enzyme-linked immunosorbent assay.

Experiment [1] deals with T2, human LAMP1 expressed at the cell surface of recombinant HCT116 (HCT116 huLAMP1 clone 8) (Homo sapiens, UniProt P11279).
T2 construct: full length human and cynomolgus monkey LAMP1 expressed at the cell surface of a recombinant cell line, wherein the cell line may be HCT116; expressed in transfected cells
T2 sequence (P11279 29-417): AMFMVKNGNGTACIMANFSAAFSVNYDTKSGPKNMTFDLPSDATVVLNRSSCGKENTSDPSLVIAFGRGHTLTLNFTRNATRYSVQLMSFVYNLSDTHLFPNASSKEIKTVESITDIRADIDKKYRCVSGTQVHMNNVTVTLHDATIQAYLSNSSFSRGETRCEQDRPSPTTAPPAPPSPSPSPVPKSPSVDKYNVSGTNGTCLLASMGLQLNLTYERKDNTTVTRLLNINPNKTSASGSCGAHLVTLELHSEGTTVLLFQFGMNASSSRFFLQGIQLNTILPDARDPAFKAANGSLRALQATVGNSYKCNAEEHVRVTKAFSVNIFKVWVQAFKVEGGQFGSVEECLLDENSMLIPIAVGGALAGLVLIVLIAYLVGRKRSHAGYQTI
In words: FACS on recombinant HCT116 stable clones expressing human LAMP1. Type of experiment: binding. As for the experimental part:
HCT116 cells were infected by a lentiviral vector allowing stable integration of the human or the cynomolgus LAMP1 CDS in genomic DNA of cells. Individual clones with different densities of human or cynomolgus LAMP1 cell surface localization were derived from a pool of HCT116 infected cells. […] 100 μL/well of goat anti-human IgG conjugated with Alexa488 (Invitrogen; #A11013) was added for 1 h at 4° C. and washed two times with PBS 1% BSA. The antibody binding was evaluated after centrifugation and resuspension of cells in 100 μl fixing solution (paraformaldehyde at 4% in PBS). Samples were read using Galaxy® Flow Cytometry System (Partec). EC50 values were estimated using BIOST@T-SPEED software.
100 μL/well of goat anti-mouse IgG conjugated with Alexa647 (Invitrogen; #A2135) was added for 45 min at 4° C. and washed three times with PBS 1% BSA. The antibody binding was evaluated after centrifugation and re-suspension of cells by adding 200 μl/well PBS 1% BSA and read using Guava® easyCyte™ 8HT Flow Cytometry System. EC50 values were estimated using BIOST@T-SPEED software.
HCT116 stable clone was obtained as described above. […]
DM4-SPDB-huMAb1_1 was assessed by flow cytometry for its ability to bind to human LAMP1 or cynomolgus LAMP1 proteins expressed respectively at the surface of HCT116 or HEK293 stable clones, both obtained as described in the protocol of example 4.7. […]

B1: MAb2: murine monoclonal anti-LAMP1 antibody, VH SEQ ID NO: 8, VL SEQ ID NO: 12 (antibody, V domains shown)
VH: QVQLQQSAAELARPGASVKMSCKASGYTFTSYTMHWVKQRPGQGLEWIGYFNPSSGYPEYNQKFKDKTTLTADKSSNTAFIQLNSLTSEDSAVYYCSRGYYYGSRGYALDFWGQGASVTVSS
VL: NIVLTQSPVSLAVSLGQRATISCRASESVDINGNTFMHWYQQKPGQSPKLVIYAASNIESGVPARFSGSGSSTDFTFTIDPVEADDVATYYCQQNIEDPWTFGGGTKVEIK
modifications: antibod fragment; antibody fragment
Turning to B1, the “EC50 (nM) Mouse LAMP1” value in the experiment with Mouse LAMP1 is listed as “do not show any binding; also recorded: No binding”. In addition, the EC50 in experiment [1] came to 6.3 nM.

B2: MAb1: murine monoclonal anti-LAMP1 antibody, VH SEQ ID NO: 1, VL SEQ ID NO: 5 (antibody, V domains shown)
VH: QVQLQQSGAELVKPGASVKMSCKASGYIFTNYNIHWVKKSPGQGLEWIGAIYPGNGDAPYSQKFKDKATLTADKSSSTTYMQLSRLTSEDSAVYYCVRANWDVAFAYWGQGTLVSVSA
VL: DIQMTQSPPSLSASLGGKVTITCKASQDIDRYMAWYQDKPGKGPRLLIHDTSTLQPGIPSRFSGSGSGRDYSFSISNLEPEDIATYYCLQYDNLWTFGGGTKLEIK
modifications: Antibody Fragment; antibody fragment
For the molecule B2, the “EC50 (nM) Mouse LAMP1” value with Mouse LAMP1 is on record as “do not show any binding; also recorded: No binding”. Also, the EC50 in experiment [1] is 4.9 nM.
